# Reference: patent US20170354129A1 (NATIONAL AGRICULTURE AND FOOD RESEARCH ORGANIZATION, published 2017)
# Tests used:
# acetylated LDL = target: T1, acetylated LDL (UniProt P04114 28-4563, acetylated (sites not given)); assay: direct ELISA, lowest antigen amount at which detection was possible
# T1 construct: Lipoprotein particle; also called AcLDL; Ac LDLs
# Method: (§1) Antigen recognition activity of a purified single chain antibody was evaluated by direct ELISA. LDLs, acetylated LDLs, partially oxidized LDLs, and fully oxidized LDLs were used as antigens. 0.05 to 10 μg/ml of antigen solution was added to a polystyrene 96-well microwell plate at 100 μl/well and allowed to adsorb overnight at 4° C. The plate was washed three times with PBS (200 μl/well). Blocking buffer (0.25% BSA/PBS) was added at 200 μl/well. The mixture was left standing for 2 hours at room temperature. After the plate was washed three times with PBS (200 μl/well), 2.5 μg/ml/PBS single chain antibody was added at 100 μl/well and reacted for 1 hour at room temperature. The plate was washed five times with PBS (200 μl/well) and anti-His-HRP antibody diluted 1000-fold with blocking buffer was added at 100 μl/well and reacted for 1 hour at room temperature. After washing the plate five times with PBS (200 μl/well), 3,3′,5,5′-tetramethyl-benzidine (TMB) was added at 50 μl/well. The luminescence was examined and 150μ/well of 1N HCl was added to suspend the reaction. Subsequently, the absorbance at 450 nm for each well of the plate was measured (FIG. 11).
# (§2) The detection limit was calculated as the detection limit at the lowest concentration at which detection was possible in measured specimens at different dilution levels.
# [1] = target: T2, LDL (unmodified low density lipoprotein) (UniProt P04114 28-4563); assay: as above
# T2 construct: Lipoprotein particle, not a pure protein; also called LDLs; unmodified LDL
# Method: as §1, §2
# fully oxidized LDL [2] = target: T3, fully oxidized LDL (UniProt P04114 28-4563, oxidatively modified with copper for 20 hours at 37 C (sites not given)); assay: as above
# T3 construct: Lipoprotein particle; also called fuOxLDL; FoxLDL
# Method: as §1, §2
# partially oxidized LDL = target: T4, partially oxidized LDL (UniProt P04114 28-4563, oxidatively modified with copper for 4 hours at 37 C (sites not given)); assay: as above
# T4 construct: Lipoprotein particle; also called moOxLDL; moLDL
# Method: as §1, §2
# fully oxidized LDL [3] = target: T3, fully oxidized LDL; assay: phage ELISA on oxidized LDL
# [4] = target: T5, F-AGE (AGEs prepared by fructose treatment of BSA) (bovine, UniProt P02769 25-607, glycated by fructose, 37 C for 12 weeks (sites not given)); assay: SPR single cycle kinetics, biotinylated sRAGE on a streptavidin (SA) chip, F-AGE as analyte
# T5 construct: also called F-AGEs; fructose treated BSA
# T5 sequence (P02769 25-607 limits assumed): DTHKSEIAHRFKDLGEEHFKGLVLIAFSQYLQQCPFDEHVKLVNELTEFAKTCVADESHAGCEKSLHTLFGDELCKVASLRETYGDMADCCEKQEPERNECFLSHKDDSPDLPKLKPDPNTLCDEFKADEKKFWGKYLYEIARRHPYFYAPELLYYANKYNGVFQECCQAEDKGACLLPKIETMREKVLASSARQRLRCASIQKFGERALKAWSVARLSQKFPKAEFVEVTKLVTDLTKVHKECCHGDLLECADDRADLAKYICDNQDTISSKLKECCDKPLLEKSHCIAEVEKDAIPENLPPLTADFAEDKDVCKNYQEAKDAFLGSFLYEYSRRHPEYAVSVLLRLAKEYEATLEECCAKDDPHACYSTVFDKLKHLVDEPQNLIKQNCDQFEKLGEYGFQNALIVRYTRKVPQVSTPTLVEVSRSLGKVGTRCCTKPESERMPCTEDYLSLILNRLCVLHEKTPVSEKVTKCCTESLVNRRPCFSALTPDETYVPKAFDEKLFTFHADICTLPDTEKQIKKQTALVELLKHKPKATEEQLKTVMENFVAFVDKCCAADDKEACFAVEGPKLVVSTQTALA
# T3 sequence (P04114 28-4563): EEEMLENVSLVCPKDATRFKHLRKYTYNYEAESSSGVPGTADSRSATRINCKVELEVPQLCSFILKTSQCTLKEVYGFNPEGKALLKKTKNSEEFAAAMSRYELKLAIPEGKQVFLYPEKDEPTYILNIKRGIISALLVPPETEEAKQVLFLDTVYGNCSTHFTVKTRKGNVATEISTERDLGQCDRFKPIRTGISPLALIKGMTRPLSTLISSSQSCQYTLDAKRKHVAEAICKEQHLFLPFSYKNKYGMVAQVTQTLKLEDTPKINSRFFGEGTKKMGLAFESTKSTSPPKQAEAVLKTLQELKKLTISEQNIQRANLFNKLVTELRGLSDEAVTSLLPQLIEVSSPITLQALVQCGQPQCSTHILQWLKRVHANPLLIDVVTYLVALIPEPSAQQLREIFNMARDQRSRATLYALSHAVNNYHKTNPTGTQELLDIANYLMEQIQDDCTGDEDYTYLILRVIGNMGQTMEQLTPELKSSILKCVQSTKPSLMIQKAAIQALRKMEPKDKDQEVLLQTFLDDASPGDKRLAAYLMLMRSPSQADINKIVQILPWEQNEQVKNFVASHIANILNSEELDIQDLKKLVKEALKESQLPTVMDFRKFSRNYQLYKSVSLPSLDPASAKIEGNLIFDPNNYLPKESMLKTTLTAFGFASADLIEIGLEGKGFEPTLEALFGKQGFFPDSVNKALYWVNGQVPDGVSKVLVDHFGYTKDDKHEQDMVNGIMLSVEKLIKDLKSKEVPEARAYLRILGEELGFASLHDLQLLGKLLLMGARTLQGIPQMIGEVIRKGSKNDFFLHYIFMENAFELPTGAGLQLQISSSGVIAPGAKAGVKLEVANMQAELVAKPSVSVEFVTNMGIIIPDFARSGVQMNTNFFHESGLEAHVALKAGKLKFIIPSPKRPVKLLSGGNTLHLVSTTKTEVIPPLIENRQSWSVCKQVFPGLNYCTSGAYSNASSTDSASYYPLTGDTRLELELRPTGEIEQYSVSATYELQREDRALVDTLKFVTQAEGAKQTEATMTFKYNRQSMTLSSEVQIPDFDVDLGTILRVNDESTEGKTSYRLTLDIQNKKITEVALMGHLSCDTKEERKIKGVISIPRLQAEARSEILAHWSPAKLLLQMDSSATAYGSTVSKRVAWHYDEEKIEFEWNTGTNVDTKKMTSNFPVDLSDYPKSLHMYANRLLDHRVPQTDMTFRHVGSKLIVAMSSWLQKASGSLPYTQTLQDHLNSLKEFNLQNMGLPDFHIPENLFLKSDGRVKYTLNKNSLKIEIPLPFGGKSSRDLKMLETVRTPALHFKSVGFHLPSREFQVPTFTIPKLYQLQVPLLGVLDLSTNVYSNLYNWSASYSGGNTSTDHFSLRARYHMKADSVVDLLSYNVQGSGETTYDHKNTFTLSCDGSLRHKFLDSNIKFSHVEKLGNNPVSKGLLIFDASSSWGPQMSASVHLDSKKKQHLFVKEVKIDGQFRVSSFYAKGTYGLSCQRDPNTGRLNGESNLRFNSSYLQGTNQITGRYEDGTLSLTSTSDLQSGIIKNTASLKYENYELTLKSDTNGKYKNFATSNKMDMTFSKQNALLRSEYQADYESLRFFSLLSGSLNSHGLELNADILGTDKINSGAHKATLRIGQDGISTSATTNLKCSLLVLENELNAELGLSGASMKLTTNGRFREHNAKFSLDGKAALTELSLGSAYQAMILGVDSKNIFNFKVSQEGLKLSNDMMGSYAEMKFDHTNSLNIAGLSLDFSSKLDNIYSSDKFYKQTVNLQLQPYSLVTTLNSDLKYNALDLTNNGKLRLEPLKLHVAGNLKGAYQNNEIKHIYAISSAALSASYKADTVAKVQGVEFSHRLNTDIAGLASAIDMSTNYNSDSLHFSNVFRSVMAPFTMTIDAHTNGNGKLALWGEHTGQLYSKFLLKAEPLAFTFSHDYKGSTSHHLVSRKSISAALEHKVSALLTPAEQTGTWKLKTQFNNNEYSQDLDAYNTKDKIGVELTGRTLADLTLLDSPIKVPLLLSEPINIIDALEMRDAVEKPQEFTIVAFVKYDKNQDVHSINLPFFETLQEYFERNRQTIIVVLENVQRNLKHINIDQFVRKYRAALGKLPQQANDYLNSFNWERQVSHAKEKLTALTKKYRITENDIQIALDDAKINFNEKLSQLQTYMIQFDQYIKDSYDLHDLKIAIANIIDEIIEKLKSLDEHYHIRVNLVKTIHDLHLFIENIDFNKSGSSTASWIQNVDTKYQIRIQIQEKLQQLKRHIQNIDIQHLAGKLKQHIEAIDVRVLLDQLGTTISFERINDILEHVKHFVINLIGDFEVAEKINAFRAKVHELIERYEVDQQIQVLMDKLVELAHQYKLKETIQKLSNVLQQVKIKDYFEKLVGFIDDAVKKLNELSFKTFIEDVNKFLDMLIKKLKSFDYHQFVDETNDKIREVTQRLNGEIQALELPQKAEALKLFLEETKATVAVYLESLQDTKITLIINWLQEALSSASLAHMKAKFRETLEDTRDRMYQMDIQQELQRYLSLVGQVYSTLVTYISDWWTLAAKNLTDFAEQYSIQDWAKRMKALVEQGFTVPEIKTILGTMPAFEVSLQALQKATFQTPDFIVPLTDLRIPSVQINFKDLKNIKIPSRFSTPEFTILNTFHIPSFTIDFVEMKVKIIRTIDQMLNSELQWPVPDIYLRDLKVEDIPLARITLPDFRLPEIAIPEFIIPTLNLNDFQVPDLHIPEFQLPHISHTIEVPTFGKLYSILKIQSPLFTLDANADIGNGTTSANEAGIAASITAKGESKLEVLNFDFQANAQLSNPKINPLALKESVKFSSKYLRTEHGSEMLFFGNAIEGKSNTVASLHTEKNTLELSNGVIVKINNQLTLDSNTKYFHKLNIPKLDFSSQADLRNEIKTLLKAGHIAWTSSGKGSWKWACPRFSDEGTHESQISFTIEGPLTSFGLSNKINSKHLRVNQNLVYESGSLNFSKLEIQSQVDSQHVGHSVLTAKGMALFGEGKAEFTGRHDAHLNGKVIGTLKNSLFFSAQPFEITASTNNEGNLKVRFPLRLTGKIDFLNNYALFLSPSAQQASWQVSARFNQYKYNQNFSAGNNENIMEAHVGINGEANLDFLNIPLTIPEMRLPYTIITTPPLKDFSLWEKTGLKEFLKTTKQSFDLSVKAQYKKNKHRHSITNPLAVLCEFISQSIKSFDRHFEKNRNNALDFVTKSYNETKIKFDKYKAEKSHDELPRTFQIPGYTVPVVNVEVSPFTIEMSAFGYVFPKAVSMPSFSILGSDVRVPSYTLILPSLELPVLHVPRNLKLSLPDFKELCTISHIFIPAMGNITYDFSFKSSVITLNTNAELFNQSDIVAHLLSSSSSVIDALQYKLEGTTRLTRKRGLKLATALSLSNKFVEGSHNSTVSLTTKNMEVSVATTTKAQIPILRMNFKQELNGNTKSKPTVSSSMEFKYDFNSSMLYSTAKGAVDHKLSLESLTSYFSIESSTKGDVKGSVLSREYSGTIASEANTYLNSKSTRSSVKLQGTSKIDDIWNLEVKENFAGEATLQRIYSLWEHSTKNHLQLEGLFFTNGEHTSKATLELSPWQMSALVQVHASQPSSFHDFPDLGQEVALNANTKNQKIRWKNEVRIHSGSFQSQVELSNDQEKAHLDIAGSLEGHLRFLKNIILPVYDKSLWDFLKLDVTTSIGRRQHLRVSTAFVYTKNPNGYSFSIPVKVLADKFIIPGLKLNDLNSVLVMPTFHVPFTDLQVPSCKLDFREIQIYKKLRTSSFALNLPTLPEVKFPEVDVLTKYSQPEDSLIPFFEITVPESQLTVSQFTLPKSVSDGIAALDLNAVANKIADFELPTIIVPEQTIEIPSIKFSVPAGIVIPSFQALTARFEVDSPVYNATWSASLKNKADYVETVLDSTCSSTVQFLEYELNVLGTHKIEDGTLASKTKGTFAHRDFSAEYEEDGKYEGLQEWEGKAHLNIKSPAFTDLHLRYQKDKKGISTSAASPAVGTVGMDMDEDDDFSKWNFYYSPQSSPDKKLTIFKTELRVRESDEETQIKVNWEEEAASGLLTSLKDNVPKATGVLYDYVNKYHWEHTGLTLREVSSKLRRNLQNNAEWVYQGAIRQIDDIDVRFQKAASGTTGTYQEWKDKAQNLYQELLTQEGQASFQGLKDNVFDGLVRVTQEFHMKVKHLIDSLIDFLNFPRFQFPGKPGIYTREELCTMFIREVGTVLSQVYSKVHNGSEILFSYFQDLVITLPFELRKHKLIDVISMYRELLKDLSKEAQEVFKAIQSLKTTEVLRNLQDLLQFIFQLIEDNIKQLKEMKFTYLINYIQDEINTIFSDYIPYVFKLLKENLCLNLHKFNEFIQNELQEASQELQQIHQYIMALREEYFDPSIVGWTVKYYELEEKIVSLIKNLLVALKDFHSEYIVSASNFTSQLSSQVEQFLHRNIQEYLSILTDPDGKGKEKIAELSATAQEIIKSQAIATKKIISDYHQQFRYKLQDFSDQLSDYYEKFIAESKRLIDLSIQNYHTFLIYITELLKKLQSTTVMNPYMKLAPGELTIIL
# T4 sequence (P04114 28-4563): as above
binder,measurement,setting,value
"single chain antibody γ+κ 5 expressed from pET-22b(+) in E. coli BL21 (DE3), refolded and purified (scFv, Human scFv (VH gamma - linker - V kappa) from a spleen library; detected through its His tag with anti-His-HRP; also called clone No. 5; purified single chain antibody; not shown: C-terminal His tag from pET-22b(+) (XhoI cloning)) scFv: MAQVQLQQSGPGLVKPSQTLSLTCAISGDSVSSRDAAWNWIRQSPSRGLEWLGRTYYRSEWYTDYAVSLESRLTVNPDTSRNQFSLQLNSVTPEDTAVYLCARGSSWGHAPAFFDYWGQGTLVTVSSGGGGSGGGGSGGGGSDIQMTQSPSSLSASVEDRVAITCRASQSVSTYVAWYQQKPGKAPKLLISQASSLENGVPSRFSGSGSGTDFTLTISSLQPEDFATYYCQQYTTYPYTFGQGTKLEIKR",detection limit,acetylated LDL,10 ng/100 µl well
same,detection limit,[1],5 ng/100 µl well
same,detection limit,fully oxidized LDL [2],20 ng/100 µl well
same,detection limit,partially oxidized LDL,10 ng/100 µl well
"single chain antibody γ+κ 5, pCANTAB5E clone 5 (phage presented and soluble forms) (scFv, the phage-presented and the soluble form are kept under one id, the assay field tells which was used; not shown: C-terminal E tag from pCANTAB5E (phage form: fused to the phage coat protein)) scFv: MAQVQLQQSGPGLVKPSQTLSLTCAISGDSVSSRDAAWNWIRQSPSRGLEWLGRTYYRSEWYTDYAVSLESRLTVNPDTSRNQFSLQLNSVTPEDTAVYLCARGSSWGHAPAFFDYWGQGTLVTVSSGGGGSGGGGSGGGGSDIQMTQSPSSLSASVEDRVAITCRASQSVSTYVAWYQQKPGKAPKLLISQASSLENGVPSRFSGSGSGTDFTLTISSLQPEDFATYYCQQYTTYPYTFGQGTKLEIKR",A450,fully oxidized LDL [3],≥ 0.6 A450
"silkworm form biotinylated sRAGE (silkworm coexpressing BirA, biotin feed, Example 19) (receptor, a single biotin on the biotinylation tag; silkworm form N-linked sugar chains at two sites, also called Biotin tag sRAGE; Biotin-RAGE) GHHHHHHHHHHSSGHIDDDDKHMAQNITARIGEPLVLKCKGAPKKPPQRLEWKLNTGRTEAWKVLSPQGGGPWDSVARVLPNGSLFLPAVGIQDEGIFRCQAMNRNGKETKSNYRVRVYQIPGKPEIVDSASELTAGVPNKVGTCVSEGSYPAGTLSWHLDGKPLVPNEKGVSVKEQTRRHPETGLFTLQSELMVTPARGGDPRPTFSCSFSPGLPRHRALRTAPIQPRVWEPVPLEEVQLVVEPEGGAVAPGGTVTLTCEVPAQPSPQIHWMKDGVPLPLPPSPVLILPEIGPQDQGTYSCVATHSSHGPQESRAVSISIIEPGEEGPTAGSRSGAGTPVTAPLAGTIWKVLASEGQTVAAGEVLLILEAMKMETEIRAAQAGTVRGIAVKAGDAVAVGDTLMTLAGTKLGPEQKLISEEDLNSAVDHHHHHH",Kd,[4],220 nM
"single chain antibody γ+κ 40, pCANTAB5E clone 40 (phage presented and soluble forms) (scFv, not shown: C-terminal E tag from pCANTAB5E) scFv: MAQVQLVQSGVELRKPGDSVKVSCKASGYSVNTHGMSWVRQAPGQGLEWLGRISSYIGLTKFAQKFQDRVTLTTDTSTNTAYLEMRSLKSDDTAVYFCGRDDYEYDAFDVWGQGTMVTVSSGGGGSGGGGSSGGGSEIVLTQSPATLSVSPGERATLSCRTTESVTDSQLAWYQQKPGQAPRLLIYGPSTRATGIPDRFSGSGSGTDFTLTISGLEPEDFAVYYCQQRNSWYTFGQGTKLEIKR",A450,fully oxidized LDL [3],≥ 0.6 A450
"single chain antibody γ+κ 19, pCANTAB5E clone 19 (phage presented and soluble forms) (scFv, not shown: C-terminal E tag from pCANTAB5E) scFv: MAEVQLVESGAEVKNPGASVKVSCKASGYTLTGYYMHWVRQAPGQGLEWMGGIIPMYGTPTYAPRFQGRVTFTADYSTNTVYMELRSLRSEDTAVFYCARQADSASYLDYWGQGTLVTVSSGGGGSGGGGSGGGGSDVVMTQSPGTLSLSPGERATLSCRASQSLDSSYLAWYQQKPGRAPRLLIYGASDRDTGIPDRFSGSGSGTDFTLTISRLEPEDFAVYYCQQYGRSRTFGQGTKLEIKR",A450,fully oxidized LDL [3],≥ 0.6 A450
"E. coli form biotinylated sRAGE (Comparative Example 2) (receptor, Not glycosylated; expressed in Origami B (DE3) together with a biotin ligase; also called E. coli form sRAGE; purified soluble biotinylated RAGE; not shown: His tag present at the N-terminus) AQNITARIGEPLVLKCKGAPKKPPQRLEWKLNTGRTEAWKVLSPQGGGPWDSVARVLPNGSLFLPAVGIQDEGIFRCQAMNRNGKETKSNYRVRVYQIPGKPEIVDSASELTAGVPNKVGTCVSEGSYPAGTLSWHLDGKPLVPNEKGVSVKEQTRRHPETGLFTLQSELMVTPARGGDPRPTFSCSFSPGLPRHRALRTAPIQPRVWEPVPLEEVQLVVEPEGGAVAPGGTVTLTCEVPAQPSPQIHWMKDGVPLPLPPSPVLILPEIGPQDQGTYSCVATHSSHGPQESRAVSISIIEPGEEGPTAGSGLNDIFEAQKIEWHE",Kd,[4],280 nM
"single chain antibody γ+κ 96, pCANTAB5E clone 96 (phage presented and soluble forms) (scFv, not shown: C-terminal E tag from pCANTAB5E) scFv: MAEVQLVESGAEAKKPGESLKISCKGSGYSFTTNWIGWVRQLPGKGLDWMGIIYPDDSDTRYSPSFQGQVTISADKSISTAYLQWNSLKASDTAMYYCARRQWGSFDLWGQGTMVTVSSGGGGSGGGGSGGGGSEIVLTQSPATLSLSPGERATLSCRASQSVSSFLAWYQQKPGQAPRLLIYGASSRATGIPDRFSGSGSGTDFTLTINRLEPEDFAVYYCQYYGSSGTFGQGTKVEIKR",A450,fully oxidized LDL [3],≥ 0.6 A450
"single chain antibody γ+κ 12, pCANTAB5E clone 12 (phage presented and soluble forms) (scFv, not shown: C-terminal E tag from pCANTAB5E) scFv: MAQVQLQQSGPGLVKPSQTLSLTCDISGDSISTNGAAWNWIRQSPSRGLEWLGRTFYRSKWYNDYAVSVKSRMIINPDTSKNQFSLQLSSVTPEDTAVYYCARVACSGGTCLDGIDVWGQGTTVTVSSGGGGSGGGGSGGGGSDIVMTQSPSSLSASVGERVTITCRASQAIRNDLGWYQQKPGKAPKLLVYSASNLQSGVPSRFSGSGSGTDFTLTISSLQPEDFATYYCQQYHSYPRTFSQGTKLEIKR",A450,fully oxidized LDL [3],≥ 0.6 A450
